Measured values published in the supplement of paper PMC10567573.

B1: TRIM43 (parent)
chain: FCDMDKSLLCLLCSNSQEHGAHKH

Variants of: B1
Experiment: protein stability index of a GFP-peptide fusion (GPS, HEK-293T) (PSI 1-6); higher = more stable
Conditions: c terminus: a fixed tail appended
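Note: lentivirally expressed fusions sorted by FACS into six bins by GFP to DsRed ratio, PSI derived from sequencing read proportions per bin multiplied by bin number.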

Point of comparison: FCDMDKSLLCLLCSNSQIHGAHKH, protein stability index 1.4. Against it:
- FCDMDKSLLCLLCSNSQEHGDHKH — higher, 2.08
- FCDMDKSLLCLLCSNSQEHGTHKH — higher, 2.07
- FCDMDKSLLCLLCSNSQEHGIHKH — higher, 1.47
- FCDMDKSLLCLLCSNSQEHGEHKH — higher, 1.83
- FCDADKSLLCLLCSNSQEHGAHKH — higher, 2.07
- FCDNDKSLLCLLCSNSQEHGAHKH — higher, 1.85
- FCDCDKSLLCLLCSNSQEHGAHKH — higher, 3.14
- FCDEDKSLLCLLCSNSQEHGAHKH — higher, 2.58
- FCDLDKSLLCLLCSNSQEHGAHKH — higher, 1.98
- FCDIDKSLLCLLCSNSQEHGAHKH — higher, 1.96
- FCDMDKSYLCLLCSNSQEHGAHKH — higher, 2.03
- FCDMDKSPLCLLCSNSQEHGAHKH — higher, 2.51
- FCDMDKSCLCLLCSNSQEHGAHKH — higher, 2.64
- FCDMDKSMLCLLCSNSQEHGAHKH — higher, 2.31
- FCDMDKSDLCLLCSNSQEHGAHKH — higher, 3.41
- FCDMDKSLLCLLCSNSDEHGAHKH — higher, 1.78
- FCDMDKSLLCLLCSNSMEHGAHKH — higher, 1.58
- FCDMDKSLLCLLCSNSIEHGAHKH — higher, 1.78
- FCDMDKSLLCLLCSNSEEHGAHKH — higher, 2.1
- FCDMDKSLLCLLCSNSCEHGAHKH — higher, 2.22
- FCDMDKSLLCELCSNSQEHGAHKH — higher, 2.93
- FCDMDKSLLCDLCSNSQEHGAHKH — higher, 2.75
- FCDMDKSLLCYLCSNSQEHGAHKH — higher, 2.26
- FCDMDKSLLCGLCSNSQEHGAHKH — higher, 1.93
- FHDMDKSLLCLLCSNSQEHGAHKH — higher, 2.22
- FIDMDKSLLCLLCSNSQEHGAHKH — higher, 1.8
- FWDMDKSLLCLLCSNSQEHGAHKH — higher, 2.38
- FRDMDKSLLCLLCSNSQEHGAHKH — higher, 2.84
- FCDMDKSLLCLLCMNSQEHGAHKH — higher, 1.85
- FCDMDKSLLCLLCKNSQEHGAHKH — higher, 2.12
- FCDMDKSLLCLLCLNSQEHGAHKH — higher, 2.08
- FCDMDKWLLCLLCSNSQEHGAHKH — higher, 1.79
- FCDMDKCLLCLLCSNSQEHGAHKH — higher, 2.26
- FCDMDKDLLCLLCSNSQEHGAHKH — higher, 2.48
- FCDMDKQLLCLLCSNSQEHGAHKH — higher, 2.54
- FCDMDKMLLCLLCSNSQEHGAHKH — higher, 2.23
- FCDMDKHLLCLLCSNSQEHGAHKH — higher, 2.22
- FCDMDKELLCLLCSNSQEHGAHKH — higher, 2.12
- FCDMDKPLLCLLCSNSQEHGAHKH — higher, 2.62
- FCDMDKSLLCLLCSNSQEHEAHKH — higher, 2.36
- FCDMDKSLLCLLCSNSQEHSAHKH — higher, 1.99
- FCDMDKSLLCLLCSNSQEHLAHKH — higher, 1.74
- FCDMDKSLLCLLCSNSQEHFAHKH — higher, 1.67
- FCDMDKSLLCLDCSNSQEHGAHKH — higher, 2.32
- FCDMDKSLLCLQCSNSQEHGAHKH — higher, 2.65
- FCDMDKSLLCLVCSNSQEHGAHKH — higher, 1.93
- FCAMDKSLLCLLCSNSQEHGAHKH — higher, 2.15
- FCCMDKSLLCLLCSNSQEHGAHKH — higher, 2.26
- FCSMDKSLLCLLCSNSQEHGAHKH — higher, 1.99
- FCDMDKSLLCLLCSNCQEHGAHKH — higher, 1.87
- FCDMDKSLLCLLCSNPQEHGAHKH — higher, 2.65
- FCDMDKSLLCLLCSNQQEHGAHKH — higher, 2.13
- FCDMDKSLLCLLCSNLQEHGAHKH — higher, 2.15
- FCDMDKSLLCLLCSNSQEFGAHKH — higher, 1.67
- FCDMDKSLLCLLCSNSQEPGAHKH — higher, 2.05
- FCDMDKSLLCLLCSNSQETGAHKH — higher, 1.83
- FCDMDKSLLCLLCSNSQECGAHKH — higher, 2.03
- FCDMDKSLLCLLCSNSQELGAHKH — higher, 1.42
- FCDMQKSLLCLLCSNSQEHGAHKH — higher, 1.98
- FCDMNKSLLCLLCSNSQEHGAHKH — higher, 1.8
- FCDMCKSLLCLLCSNSQEHGAHKH — higher, 2.02
- FCDMKKSLLCLLCSNSQEHGAHKH — higher, 2.22
- FCDMDKSLLCLLCSNSQEHGAHIH — higher, 2.17
- FCDMDKSLLCLLCSNSQEHGAHYH — higher, 1.43
- FCDMDKSLLCLLCSNSQEHGAHHH — higher, 2.13
- FCDMDKSLLCLLCSNSQEHGAHQH — higher, 1.64
- FCDMDKSLFCLLCSNSQEHGAHKH — higher, 1.89
- FCDMDKSLVCLLCSNSQEHGAHKH — higher, 2.16
- FCDMDKSLRCLLCSNSQEHGAHKH — higher, 2.08
- FCDMDKSLYCLLCSNSQEHGAHKH — higher, 1.46
- FCDMDKSLHCLLCSNSQEHGAHKH — higher, 1.93
- FCDMDKSLWCLLCSNSQEHGAHKH — higher, 1.55
- FCDMDKSLLDLLCSNSQEHGAHKH — higher, 2.18
- FCDMDKSLLHLLCSNSQEHGAHKH — higher, 2.03
- FCDMDKSLLMLLCSNSQEHGAHKH — higher, 2.15
- FCDMDKSLLCLLCSNSQEHGAEKH — higher, 1.53
- FCDMDKSLLCLLCSNSQEHGAHKW — higher, 1.84
- FCDMDKSLLCLLCSNSQEHGAHKE — higher, 1.65
- FCDMDKSLLCLLCSNSQEHGAHKP — higher, 1.69
- FCDMDKSLLCLLCSNSQQHGAHKH — higher, 1.93
- FCDMDKSLLCLLCSNSQMHGAHKH — higher, 1.83
- FCDMDKSLLCLLCSNSQGHGAHKH — higher, 1.78
- FCDMDKSLLCLLCSNSQFHGAHKH — higher, 1.75
- FCDMDKSLLCLLCSVSQEHGAHKH — higher, 1.89
- FCDMDKSLLCLLCSRSQEHGAHKH — higher, 2.1
- FCDMDWSLLCLLCSNSQEHGAHKH — higher, 2.04
- FCDMDKSLLCLLGSNSQEHGAHKH — higher, 1.9
- FCDMDKSLLCLLTSNSQEHGAHKH — higher, 1.83
- FCDMDKSLLCLLDSNSQEHGAHKH — higher, 1.99
- FCDMDKSLLCLLNSNSQEHGAHKH — higher, 1.87
- FCDMDKSLLCLLASNSQEHGAHKH — lower, 1.15
- FCDMDKSLLCLLWSNSQEHGAHKH — higher, 2.72
- FCDMDKSLLCLLESNSQEHGAHKH — higher, 2.13
